Values of other authors as cited in paper PMC10530501.

How the values were obtained:
TLR4 (Homo sapiens) = TLR4 (Homo sapiens) (UniProt O00206); experiment: SPR
C1q (Homo sapiens) = C1q (Homo sapiens) (UniProt P02745)
Sequence of UniProt P02745 (P02745 23-245, chain 1 of 3): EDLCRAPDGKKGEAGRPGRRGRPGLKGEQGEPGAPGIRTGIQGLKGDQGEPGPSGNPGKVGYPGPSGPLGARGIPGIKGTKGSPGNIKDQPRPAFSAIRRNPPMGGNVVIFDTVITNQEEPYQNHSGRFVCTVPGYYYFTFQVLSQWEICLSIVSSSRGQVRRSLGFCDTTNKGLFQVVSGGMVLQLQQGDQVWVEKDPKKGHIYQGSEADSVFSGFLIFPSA
Sequence of UniProt P02745 (P02746 28-253, chain 2 of 3, further chain): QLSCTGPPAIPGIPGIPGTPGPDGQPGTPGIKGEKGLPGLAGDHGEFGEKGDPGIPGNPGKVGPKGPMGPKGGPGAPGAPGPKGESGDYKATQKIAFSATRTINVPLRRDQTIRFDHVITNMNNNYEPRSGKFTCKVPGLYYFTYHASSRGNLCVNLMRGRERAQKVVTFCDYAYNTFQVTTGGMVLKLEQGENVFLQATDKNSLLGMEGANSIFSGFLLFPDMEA
Sequence of UniProt P02745 (P02747 29-245, chain 3 of 3, further chain): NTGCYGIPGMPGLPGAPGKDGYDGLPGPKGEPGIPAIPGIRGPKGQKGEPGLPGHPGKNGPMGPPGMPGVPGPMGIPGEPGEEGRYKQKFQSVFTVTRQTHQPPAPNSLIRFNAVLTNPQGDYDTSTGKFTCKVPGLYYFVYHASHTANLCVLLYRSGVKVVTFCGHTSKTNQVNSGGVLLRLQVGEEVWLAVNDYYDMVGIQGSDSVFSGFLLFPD

Sequence of UniProt O00206 (O00206 24-631): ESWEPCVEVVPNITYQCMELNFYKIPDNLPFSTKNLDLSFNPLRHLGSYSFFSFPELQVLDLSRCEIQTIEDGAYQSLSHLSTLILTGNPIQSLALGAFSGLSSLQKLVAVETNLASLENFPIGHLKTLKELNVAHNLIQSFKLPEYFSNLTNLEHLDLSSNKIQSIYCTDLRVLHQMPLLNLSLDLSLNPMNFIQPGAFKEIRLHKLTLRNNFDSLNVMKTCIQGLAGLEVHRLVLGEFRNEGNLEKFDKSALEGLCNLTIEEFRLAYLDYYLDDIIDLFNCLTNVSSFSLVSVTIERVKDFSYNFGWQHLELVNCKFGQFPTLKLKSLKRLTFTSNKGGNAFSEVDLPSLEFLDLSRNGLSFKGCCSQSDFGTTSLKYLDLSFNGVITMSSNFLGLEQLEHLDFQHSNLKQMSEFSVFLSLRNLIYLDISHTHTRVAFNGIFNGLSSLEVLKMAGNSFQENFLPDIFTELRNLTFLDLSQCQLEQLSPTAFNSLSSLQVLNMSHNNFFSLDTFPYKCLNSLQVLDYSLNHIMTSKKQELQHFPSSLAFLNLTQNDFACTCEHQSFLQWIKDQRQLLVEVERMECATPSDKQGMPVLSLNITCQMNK

Substance: pCTS-L (from UniProt P07711)
- Kd (TLR4 (Homo sapiens)): 20.2 nM

Substance: HMGB1 (from UniProt P09429)
- Kd (C1q (Homo sapiens)): 200 nM
